Test results from publication doi:10.1101/2025.05.27.656346.

Target: β-gal 4-domain fragment 1-725 (E. coli)
Assay: negative-stain EM

stoichiometry N: 4
Substance: β-gal 4-domain fragment 1-725 (domain or fragment)
